Results taken from US20030092037A1, “Elk1 phosphorylation related gene” (priority 2001, published 2003).

Tested on: MAP kinase cascade activation
Experiment: Reporter activity reflecting MAP kinase cascade activation, corrected using an internal control (Elk1-GAL4 luciferase reporter in 293-EBNA cells)
Assay type: cell-based, human
Settings: for Reporter activity corrected with internal control, as a factor of null vector (S/B value): 293-EBNA cells, 24 hours; for Dependence of corrected reporter activity on amount of expression plasmid: plasmid 12.5 ng, 25 ng, 50 ng and 100 ng
Protocol: (in the presence of 5% CO2). […] The method used for introduction was in accordance with the attached protocol. After culturing for 24 hours at 37° C., reporter activity (firefly luciferase acitivity), which reflects MAP kinase cascade activation, and reporter activity being the internal control (sea pansy luciferase) were measured using Picagene Dual (purchased from Toyo Ink Manufacturing) in accordance with the manufacturer's instructions.
Luciferase activity was measured with Perkin Elmer's Wallac ARVOTMST 1420 MULTILABEL COUNTER.
Reporter activity where an expression plasmid comprising the above gene was introduced, which reflects MAP kinase cascade activation corrected with internal control reporter activity, is shown in Table 1, which is expressed as a factor of the same reporter activity where a null vector was introduced (S/B value).

[1] = 12.5 ng/well expression plasmid

B1: 112 (protein, listed as Homo sapiens)
chain: METTFGPAFSAVTTITKADGTSTYKQHCRTPSSSSTLAYSPRDEEDSMPPISTPRRSDSAISVRSLHSESSMSLRSTFSLPEEEEEPEPLVFAEQPSVKLCCQLCCSVFKDPVITTCGHTFCRRCALKSEKCPVDNVKLTVVVNNIAVAEQIGELFIHCRHGCRVAGSGKPPIFEVDPRGCPFTIKLSARKDHEGSCDYRPVRCPNNPSCPPLLRMNLEAHLKECEHIKCPHSKYGCTFIGNQDTYETHLETCRFEGLKEFLQQTDDRFHEMHVALAQKDQEIAFLRSMLGKLSEKIDQLEKSLELKFDVLDENQSKLSEDLMEFRRDASMLNDELSHINARLNMGILGSYDPQQIFKCKGTFVGHQGPVWCLCVYSMGDLLFSGSSDKTIKVWDTCTTYKCQKTLEGHDGIVLALCIQGCKLYSGSADCTIIVWDIQNLQKVNTIRAHDNPVCTLVSSHNVLFSGSLKAIKVWDIVGTELKLKKELTGLNHWVRALVAAQSYLYSGSYQTIKIWDIRTLDCIHVLQTSGGSVYSIAVTNHHIVCGTYENLIHVWDIESKEQVRTLTGHVGTVYALAVISTPDQTKVFSASYDRSLRVWSMDNMICTQTLLRHQGSVTALAVSRGRLFSGAVDSTVKVWTC
- Reporter activity corrected with internal control, as a factor of null vector (S/B value) [1]: 7.6
- Reporter activity corrected with internal control, as a factor of null vector (S/B value) (25 ng/well expression plasmid): 2.2
- Reporter activity corrected with internal control, as a factor of null vector (S/B value) (50 ng/well expression plasmid): 3.1
- Dependence of corrected reporter activity on amount of expression plasmid: increases that were dependent on the amount of expression plasmid

B2: 68 (protein, listed as Homo sapiens)
chain: MLKEEQEVAMLGVPHNPAPPMSTVIHIRSETSVPDHVVWSLFNTLSMNTCCLGFIAFAYSVKSRDRKMVGDVTGAQAYASTAKCLNIWALILGIFMTILLIIIPVLVVQAQR
- Reporter activity corrected with internal control, as a factor of null vector (S/B value) (25 ng/well expression plasmid): 2.3
- Reporter activity corrected with internal control, as a factor of null vector (S/B value) (50 ng/well expression plasmid): 4.0
- Reporter activity corrected with internal control, as a factor of null vector (S/B value) (100 ng/well expression plasmid): 7.3
- Dependence of corrected reporter activity on amount of expression plasmid: increases that were dependent on the amount of expression plasmid

B3: 110 (protein, listed as Homo sapiens)
chain: MERPLCSHLCSCLAMLALLSPLSLAQYDSWPHYPEYFQQPAPEYHQPQAPANVAKIQLRLAGQKRKHSEGRVEVYYDGQWGTVCDDDFSIHAAHVVCRELGYVEAKSWTASSSYGKGEGPIWLDNLHCTGNEATLAACTSNGWGVTDCKHTEDVGVVCSDKRIPGFKFDNSLINQIENLNIQVEDIRIRAILSTYRKRTPVMEGYVEVKEGKTWKQICDKHWTAKNSRVVCGMFGFPGERTYNTKVYKMFASRRKQRYWPFSMDCTGTEAHISSCKLGPQVSLDPMKNVTCENGLPAVVSCVPGQVFSPDGPSRFRKAYKPEQPLVRLRGGAYIGEGRVEVLKNGEWGTVCDDKWDLVSASVVCRELGFGSAKEAVTGSRLGQGIGPIHLNEIQCTGNEKSIIDCKFNAESQGCNHEEDAGVRCNTPAMGLQKKLRLNGGRNPYEGRVEVLVERNGSLVWGMVCGQNWGIVEAMVVCRQLGLGFASNAFQETWYWHGDVNSNKVVMSGVKCSGTELSLAHCRHDGEDVACPQGGVQYGAGVACSETAPDLVLNAEMVQQTTYLEDRPMFMLQCAMEENCLSASAAQTDPTTGYRRLLRFSSQIHNNGQSDFRPKNGRHAWIWHDCHRHYHSMEVFTHYDLLNLNGTKVAEGHKASFCLEDTECEGDIQKNYECANFGDQGITMGCWDMYRHDIDCQWVDITDVPPGDYLFQVVINPNFEVAESDYSNNIMKCRSRYDGHRIWMYNCHIGGSFSEETEKKFEHFSGLLNNQLSPQ
- Reporter activity corrected with internal control, as a factor of null vector (S/B value) [1]: 2.3
- Reporter activity corrected with internal control, as a factor of null vector (S/B value) (25 ng/well expression plasmid): 3.4
- Reporter activity corrected with internal control, as a factor of null vector (S/B value) (50 ng/well expression plasmid): 4.7
- Dependence of corrected reporter activity on amount of expression plasmid: increases that were dependent on the amount of expression plasmid

B4: 50 (protein, listed as Homo sapiens)
chain: MAKERRRAVLELLQRPGNARCADCGAPDPDWASYTLGVFICLSCSGIHRNIPQVSKVKSVRLDAWEEAQVEFMASHGNDAARARFESKVPSFYYRPTPSDCQLLREQWIRAKYERQEFIYPEKQEPYSAGYREGFLWKRGRDNGQFLSRKFVLTEREGALKYFNRNDAKEPKAVMKIEHLNATFQPAKIGHPHGLQVTYLKDNSTRNIFIYHEDGKEIVDWFNALRAARFHYLQVAFPGASDADLVPKLSRNYLKEGYMEKTGPKQTEGFRKRWFTMDDRRLMYFKDPLDAFARGEVFIGSKESGYTVLHGFPPSTQGHHWPHGITIVTPDRKFLFACETESDQREWVAAFQKAVDRPMLPQEYAVEAHFKHKP
- Reporter activity corrected with internal control, as a factor of null vector (S/B value) (25 ng/well expression plasmid): 2.3
- Reporter activity corrected with internal control, as a factor of null vector (S/B value) (50 ng/well expression plasmid): 4.3
- Reporter activity corrected with internal control, as a factor of null vector (S/B value) (100 ng/well expression plasmid): 3.8
- Dependence of corrected reporter activity on amount of expression plasmid: increases that were dependent on the amount of expression plasmid

B5: 60 (protein, listed as Homo sapiens)
chain: MLGSGFKAERLRVNLRLVINRLKLLEKKKTELAQKARKEIADYLAAGKDERARIRVEHIIREDYLVEAMEILELYCDLLLARFGLIQSMKELDSGLAESVSTLIWAAPRLQSEVAELKIVADQLCAKYSKEYGKLCRTNQIGTVNDRLMHKLSVEAPPKILVERYLIEIAKNYNVPYEPDSVVMVPPQECERMGEALWEDHQRWLDSGREHVVKHPSLVLRFQT
- Reporter activity corrected with internal control, as a factor of null vector (S/B value) (25 ng/well expression plasmid): 2.0
- Reporter activity corrected with internal control, as a factor of null vector (S/B value) (50 ng/well expression plasmid): 2.6
- Reporter activity corrected with internal control, as a factor of null vector (S/B value) (100 ng/well expression plasmid): 4.2
- Dependence of corrected reporter activity on amount of expression plasmid: increases that were dependent on the amount of expression plasmid

B6: 116 (protein, listed as Mus musculus)
chain: MSSAKSARYDRFSGGPANLPSSDSSGTRMETTFGPTFSTVTTITKAADGTGTYKQHRRTPSSSSTLAYSPRDEEDGMEPLVFAEQPSVKLCCQLCCSVFKDPVITTCGHTFCRRCALKSEKCPVDNAKLTVVVNNIAVAEQIGELFIHCRHGCHAAGTGKPGVFEVDPRGCPFTIKLSARKDHESSCDYRPVRCPNNPSCPPLLKMNLEAHLKECEHIKCPHSKYGCTFIGNQDTYETHLETCRFEGLKEFLQQSDDRFHEMHVALAQKDQEIAFLRSMLGKLSEKINQLEKSLELKFDVLDENQSKLSEDLMEFRRDASMLNDELSHINARLNMGILGSYDPQQIFKCKGTFVGHQGPVWCLCVYSMGDLLFSGSSDKTIKVWDTCTTYKCQKTLEGHDGIVLALCIQGCKLYSGSADCTIIVWDIQNLQKVNTIRAHDNPVCTLVSSHNMLFSGSLKAIKVWDIVGTELKLKKELTGLNHWVRALVAAQSYLYSGSYQTIKIWDIRTLDCIHVLQTSGGSVYSIAVTNHHIVCGTYENLIHVWDIESKEQVRTLTGHVGTVYALAVISTPDQTKVFSASYDRSLRVWSMDNMICTQTLLRHQGSVTALAVSRGRLFSGAVDSTVKVWTC
- Reporter activity corrected with internal control, as a factor of null vector (S/B value) [1]: 11.9
- Reporter activity corrected with internal control, as a factor of null vector (S/B value) (25 ng/well expression plasmid): 17.3
- Reporter activity corrected with internal control, as a factor of null vector (S/B value) (50 ng/well expression plasmid): 19.9
- Dependence of corrected reporter activity on amount of expression plasmid: increases that were dependent on the amount of expression plasmid

B7: 44 (protein, listed as Homo sapiens)
chain: MEDEEVAESWEEAADSGEIDRRLEKKLKITQKESRKSKSPPKVPIVIQDDSLPAGPPPQIRILKRPTSNGVVSSPNSTSRPTLPVKSLAQREAEYAEARKRILGSASPEEEQEKPILDRPTRISQPEDSRQPNNVIRQPLGPDGSQGFKQRR
- Reporter activity corrected with internal control, as a factor of null vector (S/B value) (25 ng/well expression plasmid): 9.1
- Reporter activity corrected with internal control, as a factor of null vector (S/B value) (50 ng/well expression plasmid): 55.4
- Reporter activity corrected with internal control, as a factor of null vector (S/B value) (100 ng/well expression plasmid): 64.5
- Dependence of corrected reporter activity on amount of expression plasmid: increases that were dependent on the amount of expression plasmid

B8: 4 (protein, listed as Homo sapiens)
chain: MSHEKSFLVSGDNYPPPNPGYPGGPQPPMPPYAQPPYPGAPYPQPPFQPSPYGQPGYPHGPSPYPQGGYPQGPYPQGGYPQGPYPQEGYPQGPYPQGGYPQGPYPQSPFPPNPYGQPQVFPGQDPDSPQHGNYQEEGPPSYYDNQDFPATNWDDKSIRQAFIRKVFLVLTLQLSVTLSTVSVFTFVAEVKGFVRENVWTYYVSYAVFFISLIVLSCCGDFRRKHPWNLVALSVLTASLSYMVGMIASFYNTEAVIMAVGITTAVCFTVVIFSMQTRYDFTSCMGVLLVSMVVLFIFAILCIFIRNRILEIVYASLGALLFTCFLAVDTQLLLGNKQLSLSPEEYVFAALNLYTDIINIFLYILTIIGRAKE
- Reporter activity corrected with internal control, as a factor of null vector (S/B value) (25 ng/well expression plasmid): 2.1
- Reporter activity corrected with internal control, as a factor of null vector (S/B value) (50 ng/well expression plasmid): 4.1
- Reporter activity corrected with internal control, as a factor of null vector (S/B value) (100 ng/well expression plasmid): 4.5
- Dependence of corrected reporter activity on amount of expression plasmid: increases that were dependent on the amount of expression plasmid

B9: 52 (protein, listed as Homo sapiens)
chain: MAASRLELNLVRLLSRCEAMAAEKRDPDEWRLEKYVGALEDMLQALKVHASKPASEVINEYSWKVDFLKGMLQAEKLTSSSEKALANQFLAPGRVPTTARERVPATKTVHLQSRARYTSEMRSELLGTDSAEPEMDVRKRTGVAGSQPVSEKQSAAELDLVLQRHQNLQEKLAEEMLGLARSLKTNTLAAQSVIKKDNQTLSHSLKMADQNLEKLKTESERLEQHTQKSVNWLLWAMLIIVCFIFISMILFIRIMPKLK
- Reporter activity corrected with internal control, as a factor of null vector (S/B value) (25 ng/well expression plasmid): 2.3
- Reporter activity corrected with internal control, as a factor of null vector (S/B value) (50 ng/well expression plasmid): 3.6
- Reporter activity corrected with internal control, as a factor of null vector (S/B value) (100 ng/well expression plasmid): 5.4
- Dependence of corrected reporter activity on amount of expression plasmid: increases that were dependent on the amount of expression plasmid
